Source: a protein production outcome set (Wang et al. 2014)

Test: label from the status in PepcDB records

Row | Sequence | protein production
1 | MSSLALRSPALALALTLGGLLLCGPVQAQQANSANDMVGRMQYRISELERLVQDLTGKVEQSLYENRQLQTKLENAQSDIDFRLNALESAGPAAAAPANSVPSSARPTASAGAGKQGTPAPAEGVLGFPGKTAPAQGAASAARPAAAGALPAGSENDQYNYAFSLLRNADYPAAEQAFKAFLDQHPKGSLAGNAQYWLGETYYVRGDYEQAAVAFMGGYQSHPDSSKGPDNLLKLGLAMANLGKSKEACAAFGRLESQYPKAADAIKRRAKEGMSKLGC | failed
2 | MSSLGSRSSTSIQPVILCGGSGTRLWPLSRQSYPKQFMPLLGGRSLLALTLERVSGLSSHPWCVASTEHRFLVIDAFEQCQLNGQVLLEPSARNTAAAIAVAALHAEDDALLLFCPADHYIPDAPAFVERVRQAQVAALDGALVTFGVFPTYPSSAYGYIEASAPWQDSGALHVQRFIEKPSATQAAELLLKGNMYWNAGIFLGLAREWRRALELHAPDILAACRDALREAESPVISRSGQTTVQSVVLHEPSFDACRSQSIDYAVMEHHRPICAVPFNGAWSDVGSWNAVADLSSADDKGNSSQGDAHLFDCQRTYVHAAGRRPVVALGLEDVCIVDTDDAVLVMPMSRAEDIKSVVGQLTDRSVAQALLHRRVARPWGWYDSLDQGERFQVKRIGVKPGASLSLQLHHHRAEHWTVVKGTAEITCGDRVFLLSENQSTYIPLGQRHRLHNPGKVELEIIEVQSGSYLAEDDIVRLEDNYGRTAPHCPGPAEADSTLIEQ | failed
3 | MSSLKDNYQSKVKAYQPSPPYVLNCIKAFLVGGLICTIGQAFQNFYMAVFHFDEKTAGNPTVATLILISALLTGLGVYDRIGQFAGAGSAVPVTGFANSMTSAALEHKSEGYVLGVGTNMFKLAGNVIVFGVVAAYIVGMIRFAFDKLF | failed
4 | MSSLLPEKWGEALERVHDKVGHFLTRVMPWKKQEHFPERITADTLPAFMQSGGPLLDMHETADELIIRAEVPGLKNDDFSVGIVGRRLTIKGEKNIVRERKGGDGCLISECRYGSFARTLQLPYEIDEKAIAADLKHGVLTIRLPKPEKGRHARYRVPIS | failed
5 | MSSLMIKLNLNYKLITKKTLPKLFYWGLGIVFFFLAPTTNAGSLSPYTTKELEQLEREFIQLINQSDSVERNPLASQYINSIGKKLAHYGRIKTPYFFIVKSKEINAFAGPGGYIGINTQLILTSSNESELAAVMAHEIAHVRLHHLYSIIEHQKQMRVPLLASILASAALGVLNPTVGMGAMMASVSGFSQDNINFTRSKEKEADRIGIDMLIKAGFNPQGMAAFFNKMQENSRYYYTANIPAILRTHPLDADRIAEAENRTSRLPKKHYTDSLDYALFKELIRVSVASNNKQILDYYEHHCHKKNPATACQYGYVLALLNNNNFQKAAEKLNPLLLQDNSNLNFQIAMAQAELGLSQYQSALSRLAELQNNFPDNYAALMAYAQGLLTANQPQKATAVLLKGSRQYKEDLPLCRELARAQAESHQKSYAYFTQAQCLLLEGQKRGAIAQLKVAQKLAKRDAYLSARISAKIDEIKFMVENLEHHHHHH | failed
6 | MSSLNIKQGSDAHFPDYPLASPSNNEIDLLNLISVLWRAKKTVMAVVFAFACAGLLISFILPQKWTSAAVVTPPEPVQWQELEKTFTKLRVLDLDIKIDRTEAFNLFIKKFQSVSLLEEYLRSSPYVMDQLKEAKIDELDLHRAIVALSEKMKAVDDNASKKKDEPSLYTSWTLSFTAPTSEEAQTVLSGYIDYISALVVKESIENVRNKLEIKTQFEKEKLAQDRIKMKNQLDANIQRLNYSLDIANAAGIKKPVYSNGQAVKDDPDFSISLGADGIERKLEIEKAVTDVAELNGELRNRQYLVEQLTKANINDVNFTPFKYQLSPSLPVKKDGPGKAIIVILSALIGGMVACGSVLLRYAMASRKQDAMMADHLV | not failed
7 | MSSLNNEEWDLLISGKKATLQYPIPLLCYPAPEVVSIAQIIDHTQLSLSATGSQIDVLCAEAKEYGFATVCVRPDYVSRAVQYLQGTQVGVTCVIGFHEGTYSTDQKVSEAKRAMQNGASELDMVMNYPWLSEKRYTDVFQDIRAVRLAAKDAILKVILETSQLTADEIIAGCVLSSLAGADYVKTSTGFNGPGASIENVSLMSAVCDSLQSETRVKASGGIRTIEDCVKMVRAGAERLGASAGVKIVNETRLGNRQVDEPMEPTNY | not failed
